In paper PMC9505826, “A Peptide Inhibitor of the Human Cytomegalovirus Core Nuclear Egress Complex” (Pharmaceuticals, 2022):

B1: Hook peptide (acetylated pUL53 hook peptide, residues 59-87) (peptide)
peptide: Ac-LTLHDLHDIFREHPELELKYLNMMKMAIT-NH2
notes: source: synthetic peptide (Fmoc solid-phase synthesis, HPLC purified)
B2: recombinant HCMV pUL50 (His-tagged) (natural protein)
chain: MEMNKVLHQDLVQATRRILKLGPSELRVTDAGLICKNPNYSVCDAMLKTDTVYCVEYLLSYWESRTDHVPCFIFKNTGCAVSLCCFVRAPVKLVSPARHVGEFNVLKVNESLIVTLKDIEEIKPSAYGVLTKCVVRKSNSASVFNIELIAFGPENEGEYENLLRELYAKKAASTS
notes: also called His-tagged pUL50

What was measured:
[1] = target: B2; experiment: ELISA; competition: pUL53 (1 µg/mL) coated on Immulon plates; peptide in serial dilutions from 10 µM together with His-tagged pUL50 (0.78 µg/mL) for 2.5 h; detection with anti-His-HRP; 0.1 M phosphate buffer pH 7.2, 0.1% BSA, 0.01% Tween 20; conditions: both partners purified
[2] = target: T1, Fluo-NLS-CPP (fluoresceinylated; pUL53 NLS 18-27 joined to HIV-1 Tat 47-59) (human cytomegalovirus (HCMV) | human …); experiment: fluorescence polarisation; 25 nM N-terminally fluoresceinylated peptide; recombinant pUL50 in two-fold serial dilutions from 20 µM; 0.1 M PB, 150 mM NaCl, 1 mM TCEP, pH 7.2, 0.01% Tween 20; conditions: both partners purified
T1 construct: also called Fluo-NLS-CPP peptide; source: synthetic peptide (Fmoc solid-phase synthesis, HPLC purified)

| Binder | IC50 [1] [nM] | Kd [2] [nM] |
| --- | --- | --- |
| B1 | 125 |  |
| B2 |  | > 10000 |
